Measurements from patent publication US20250152742A1, “COMPOSITIONS AND METHODS FOR NEUROLOGICAL DISEASES” (Trames Bio, Inc., priority 2022, published 2025).

Tests used:
Type in all cases: cell-based
rat hippocampal neurons [1] = assay: Spontaneous action potential firing rate, hippocampal neurons (current clamp)
Description: Spontaneous activity was recorded in gapfree mode, in the presence and absence of a compound. Data were acquired at 10 kHz, with Bessel filter at 2 kHz and series resistance compensation at 100%. No holding current was applied to the membrane. […] For Clampfit, threshold-based event detection was run separately for each epoch to detect action potentials. For the custom Python code, a peak-finding package was used to automatically detect action potentials (SciPy). For both methods, minimum height, average height, maximum height were measured and frequency was calculated as the number of events in the epoch divided by the length of time of the epoch. For Clampfit, the resting membrane potential was measured at 3 points between events and averaged for each epoch. […] For both methods, membrane potential was corrected for the calculated liquid junction potential. […]
Hippocampal spontaneous action potential experiments: Hippocampal spontaneous action potentials were recorded in current clamp mode using a potassium-based internal solution containing (in mM): 115 potassium D-gluconate (G4500), 13 potassium chloride (P9333), 1 magnesium chloride hexahydrate (M2670), 5 magnesium ATP (A9187), 10 HEPES (54457), and 0.5 EGTA (3777) (pH=7.2, osmolarity=290-295 mOsm, calculated liquid junction potential=−14.9 mV). Spontaneous activity was recorded in gapfree mode, in the presence and absence of a compound. […]

[2] = system: engineered chimeric receptor SEQ ID NO: 33 and its mutants (human α7-nAChR ligand binding domain / human GlyRα1 ion pore domain) in Lenti-X 293T cells; assay: YFP fluorescence quenching anion reporter plate reader assay (percent quench, EC50); details: for YFP fluorescence quenching using CNL001 (percent quench): receptor named in row; for YFP fluorescence quenching using Varenicline, 3 nM var: ligand Varenicline 3 nM; for YFP fluorescence quenching using Varenicline, 30 nM var: ligand Varenicline 30 nM; for YFP fluorescence quenching using Varenicline, 300 nM var: ligand Varenicline 300 nM; for YFP fluorescence quenching using Varenicline, 500 nM var: ligand Varenicline 500 nM; for YFP fluorescence quenching using Varenicline, 1 uM var: ligand Varenicline 1 uM
How it was run: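 Lenti-X 293T cells co-expressing an anion-quenchable YFP were transiently transfected with receptor DNA, then ligand was added in NaI-substituted buffer (pH 7.2) after 30 min at 37 °C. Fluorescence was read about 2 min; percent quench = mean of last 10 s over 15 s pre-ligand baseline.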

rat hippocampal neurons [3] = assay: Evoked rheobase shift, rat hippocampal neurons (current clamp)
Description: No holding current was applied to the membrane for cells included in the final datasets. Data acquisition settings and analysis methods were the same as for the DRG rheobase experiments.
Hippocampal neurons: Hippocampal rheobase experiments were performed in current clamp mode using a potassium-based internal solution containing (in mM): 115 potassium D-gluconate (G4500), 13 potassium chloride (P9333), 1 magnesium chloride hexahydrate (M2670), 5 magnesium ATP (A9187), 10 HEPES (54457), and 0.5 EGTA (3777) (pH=7.2 with potassium hydroxide, osmolarity=290-295 mOsm, calculated liquid junction potential=−14.9 mV. NBQX (10 μM) and AP5 (50 μM) were included in the bath to block excitatory synaptic transmission. To measure HC input resistance and rheobase, 500 ms current steps (−200 pA to 700 pA) were applied the membrane in the presence and absence of a compound. No holding current was applied to the membrane for cells included in the final datasets. Data acquisition settings and analysis methods were the same as for the DRG rheobase experiments.

B1: CODA1140: engineered receptor: R101F, L131N, S172D in SEQ ID NO: 33 (protein)
chain: MRCSPGGVWLALAASLLHVSLQGEFQRKLYKELVKNYNPLERPVANDSQPLTVYFSLSLLQIMDVDEKNQVLTTNIWLQMSWTDHYLQWNVSEYPGVKTVFFPDGQIWKPDILLYNSADERFDATFHTNVNVNSSGHCQYLPPGIFKSSCPMDLKNFPMDVQTCKLKFGSWDYGGWSLDLQMQEADISGYIPNGEWDLVGIPGKRSERFYECCKEPYPDVTFTVTMRRRMGYYLIQMYIPSLLIVILSWISFWINMDAAPARVGLGITTVLTMTTQSSGSRASLPKVSYVKAIDIWMAVCLLFVFSALLEYAAVNFVSRQHKELLRFRRKRRHHKSPMLNLFQEDEAGEGRFNFSAYGMGPACLQAKDGISVKGANNSNTTNPPPAPSKSPEEMRKLFIQRAKKIDKISRIGFPMAFLIFNMFYWIIYKIVRREDVHNQ
modifications: synthetic sequence of chimeric LGIC
Firing Rate Spontaneous; Rat Hippocampal Neurons, Baseline (rat hippocampal neurons [1]; baseline, no ligand): 3.29 ± 0.75 Hz
Firing Rate Spontaneous; Rat Hippocampal Neurons, +CNL002 @ EC90 (rat hippocampal neurons [1]; ligand CNL002 at EC90): 0.71 ± 0.29 Hz
YFP fluorescence quenching using CNL001 (percent quench) ([2]; 1 nM CNL001, first column so headed): 52.592%
YFP fluorescence quenching using CNL001 (percent quench) ([2]; 1 nM CNL001, second column so headed): 61.248%
YFP fluorescence quenching (percent quench) ([2]; 1 nM CNL002): 0.337%
YFP fluorescence quenching using CNL001 (percent quench) ([2]; 10 nM CNL001, first column so headed): 71.678%
YFP fluorescence quenching using CNL001 (percent quench) ([2]; 10 nM CNL001, second column so headed): 71.881%
YFP fluorescence quenching (percent quench) ([2]; 10 nM CNL002): 59.894%
YFP fluorescence quenching using CNL001 (percent quench) ([2]; 50 nM CNL001, first column so headed): 73.807%
YFP fluorescence quenching using CNL001 (percent quench) ([2]; 50 nM CNL001, second column so headed): 75.649%
YFP fluorescence quenching (percent quench) ([2]; 50 nM CNL002): 76.501%
YFP fluorescence quenching using ABT-126 (percent quench) ([2]; 50 nM abt (ABT-126)): −7.87%
YFP fluorescence quenching using CNL001 (percent quench) ([2]; 100 nM CNL001, first column so headed): 76%
YFP fluorescence quenching using CNL001 (percent quench) ([2]; 100 nM CNL001, second column so headed): 76.329%
YFP fluorescence quenching (percent quench) ([2]; 100 nM CNL002): 79.03%
YFP fluorescence quenching using ABT-126 (percent quench) ([2]; 100 nM abt (ABT-126)): −5.35%
YFP fluorescence quenching using ABT-126 (percent quench) ([2]; 300 nM abt (ABT-126)): −3.67%
YFP fluorescence quenching using CNL001 (percent quench) ([2]; 1 uM CNL001, first column so headed): 76.168%
YFP fluorescence quenching using CNL001 (percent quench) ([2]; 1 uM CNL001, second column so headed): 74.076%
YFP fluorescence quenching (percent quench) ([2]; 1 uM CNL002): 82.85%
YFP fluorescence quenching using ABT-126 (percent quench) ([2]; 1 uM abt (ABT-126)): 3.64%
YFP fluorescence quenching using ABT-126 (percent quench) ([2]; 10 uM abt (ABT-126)): 5.91%
YFP fluorescence quenching (percent quench) ([2]; 10 uM ach (acetylcholine)): −20.07%
YFP fluorescence quenching (percent quench) ([2]; 30 uM ach (acetylcholine)): −16.92%
YFP fluorescence quenching (percent quench) ([2]; 100 uM ach (acetylcholine)): −25.8%
YFP fluorescence quenching (percent quench) ([2]; 300 uM ach (acetylcholine)): −11.21%
YFP fluorescence quenching (percent quench) ([2]; 1 mM ach (acetylcholine)): 9.02%
YFP fluorescence quenching (percent quench) ([2]; 3 mM ach (acetylcholine)): 45%
YFP fluorescence quenching using Varenicline, 3 nM var ([2]; first column): −6.169
YFP fluorescence quenching using Varenicline, 3 nM var ([2]; second column): −10.445
YFP fluorescence quenching using Varenicline, 30 nM var ([2]; first column): −9.679
YFP fluorescence quenching using Varenicline, 30 nM var ([2]; second column): −10.878
YFP fluorescence quenching using Varenicline, 300 nM var ([2]; first column): −9.572
YFP fluorescence quenching using Varenicline, 300 nM var ([2]; second column): −8.873
YFP fluorescence quenching using Varenicline, 500 nM var ([2]; first column): −14.656
YFP fluorescence quenching using Varenicline, 500 nM var ([2]; second column): −11.304
YFP fluorescence quenching using Varenicline, 1 uM var ([2]; first column): −13.996
YFP fluorescence quenching using Varenicline, 1 uM var ([2]; second column): −16.128
Rheobase Shift Evoked; Rat Hippocampal Neurons, Baseline (rat hippocampal neurons [3]; baseline, no ligand): 40.63 ± 10.50 pA
Rheobase Shift Evoked; Rat Hippocampal Neurons, +CNL002 @ EC90 (rat hippocampal neurons [3]; ligand CNL002 at EC90): 296.9 ± 72.65 pA
